# Laboratory results: US20130079286A1 (Pieris, published 2013)
# B1: Lcn2 mutein N9B (designed binder)
# chain: QDSTSDLIPAPPLSKVPLQQNFQDNQFHGKWYVVGRAGNMRLREDKDPAKMVATIYELKEDKSYNVTKVMFQRKKCKYMINTFVPGSQPGEFTLGAIKSPPGPTSTLVRVVSTNYNQHAMVFFKHVFQNREYFHITLYGRTKELTSELKENFIRFSKSLGLPENHIVFPVPIDQCIDG
# B2: Lcn2 mutein H1GV (designed binder)
# chain: QDSTSDLIPAPPLSKVPLQQNFQDNQFHGKWYVVGVAGNVLLREDKDPLKMYATIYELKEDKSYNVTSVGFDDKKCLYKIRTFVPGSQPGEFTLGRIKSEPGGTSWLVRVVSTNYNQHAMVFFKEVAQNRETFNITLYGRTKELTSELKENFIRFSKSLGLPENHIVFPVPIDQCIDG
# notes: H1-G1 with Cys36 replaced by Val
# B3: Lcn2 mutein H1GA (designed binder)
# chain: QDSTSDLIPAPPLSKVPLQQNFQDNQFHGKWYVVGAAGNVLLREDKDPLKMYATIYELKEDKSYNVTSVGFDDKKCLYKIRTFVPGSQPGEFTLGRIKSEPGGTSWLVRVVSTNYNQHAMVFFKEVAQNRETFNITLYGRTKELTSELKENFIRFSKSLGLPENHIVFPVPIDQCIDG
# notes: H1-G1 with Cys36 replaced by Ala
# Legend:
# [1] = molecular target: T1, recombinant human fibronectin fragment FN7B8 (human, UniProt P02751 1173-1448); test: ELISA: FN7B8 coated, mutein titrated, detected via Strep-tag II
# T1 construct: no separate number is printed for the protein, so the entry may be a nucleic acid
# T1 sequence (P02751 other isoform, or with tags, fused parts or gaps limits assumed): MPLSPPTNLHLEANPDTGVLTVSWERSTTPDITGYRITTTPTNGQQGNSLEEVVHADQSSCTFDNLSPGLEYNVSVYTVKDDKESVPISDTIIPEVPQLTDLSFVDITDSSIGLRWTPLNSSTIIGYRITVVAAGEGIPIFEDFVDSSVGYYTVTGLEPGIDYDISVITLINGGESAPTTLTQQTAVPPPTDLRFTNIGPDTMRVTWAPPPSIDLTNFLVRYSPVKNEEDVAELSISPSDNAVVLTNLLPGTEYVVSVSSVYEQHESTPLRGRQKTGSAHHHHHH
# [2] = molecular target: T2, recombinant fibronectin single domain ED-B (human); test: SPR (BIAcore X), ED-B amine-coupled (about 180 RU), mutein as analyte
# T2 construct: the entry may be a nucleic acid; also called extra domain-B; extra-domain B
# T2 sequence (chain, as listed by the source limits assumed): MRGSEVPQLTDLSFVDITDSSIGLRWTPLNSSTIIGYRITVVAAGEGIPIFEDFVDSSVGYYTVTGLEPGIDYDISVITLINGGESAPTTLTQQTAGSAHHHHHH
# Description: (§1) FIG. 27 depicts the kinetic real time analysis of Lcn2 variants N7A (A), N7E (B), N9B (C) and N10D (D) measured on a Biacore X instrument. The single fibronectin domain ED-B was coupled via amine chemistry to a CMD 200 m sensor chip (ΔRU=180) and the purified Lcn2 variants were applied at varying concentrations. The measured signals are shown as traces together with the curve fits.
# (§2) Real time interaction analysis of Lcn2 muteins was performed on a BIAcore X instrument using HBS/ET (20 mM Hepes, pH 7.5, 150 mM NaCl, 1 mM EDTA containing 0.005% (v/v) Tween 20) as running buffer. 100 μg/ml solution of recombinant ED-B in 10 mM Na-acetate, pH 4.0 was immobilized on a CMD 200 m Sensorchip using standard amine coupling chemistry, resulting in a ligand density of about 180 resonance units (RU). The purified Lcn2 mutein was applied at a flow rate of 25 μl/min at concentrations of 2.5 up to 160 nM. The sensorgrams were corrected by subtraction of the corresponding signals measured for the control channel, which had been activated and blocked with ethanolamine. […] In the case of N10D the heterogeneous analyte competing reaction model was used for data fitting, resulting in two sets of kinetic constants.
# [3] = molecular target: T1, recombinant human fibronectin fragment …; test: SPR (BIAcore X), FN7B8 amine-coupled (about 500 RU), mutein as analyte
# Excerpt: (§3) FIG. 13 depicts the kinetic real time analysis of Lcn2 mutein N9B measured on a Biacore instrument. FN7B8 was coupled via amine chemistry to a CMD 200 m sensor chip (ΔRU=500) and the purified Lcn2 mutein was applied at varying concentrations. The measured signal is shown as a grey line whereas the curve fit is depicted as a black line in each case.
# as §3, with “14” for “13”, “N7E” for “N9B”
# Real time analysis of Lcn2 muteins was performed on a BIAcore X system (BIAcore, Uppsala, Sweden) using HBS/ET (20 mM Hepes, pH 7.5, 150 mM NaCl, 1 mM EDTA containing 0.005% (v/v) Tween 20) as running buffer. 200 μg/ml solution of recombinant FN7B8 in 10 mM Na-acetate, pH 4.0 was immobilized on a CMD 200 m Sensorchip (XanTec bioanalytics, Duesseldorf, Germany) using standard amine coupling chemistry (Biacore, Uppsala, Sweden), resulting in a ligand density of about 500 resonance units (RU). The purified Lcn2 mutein was applied at a flow rate of 25 μl/min at concentrations of 2.5 up to 160 nM. The sensorgrams were corrected by subtraction of the corresponding signals measured for the control channel, which had been activated and blocked with ethanolamine.
# [4] = molecular target: T2, recombinant fibronectin single domain …; test: SPR (BIAcore X), ED-B immobilised by amine coupling, Lcn2 mutein injected at 0 to 80 nM, 1:1 model
# Description: as §1
# as §2, with “The purified Lcn2 mutein was applied at a flow rate of 25 μl/min at concentrations of 2.5 up to 160 nM.” left out
# [5] = molecular target: T3, recombinant human fibronectin fragment FN789 (human, UniProt P02751 1173-1539); test: ELISA on coated protein
# T3 construct: the entry may be a nucleic acid
# T3 sequence (P02751 other isoform, or with tags, fused parts or gaps limits assumed): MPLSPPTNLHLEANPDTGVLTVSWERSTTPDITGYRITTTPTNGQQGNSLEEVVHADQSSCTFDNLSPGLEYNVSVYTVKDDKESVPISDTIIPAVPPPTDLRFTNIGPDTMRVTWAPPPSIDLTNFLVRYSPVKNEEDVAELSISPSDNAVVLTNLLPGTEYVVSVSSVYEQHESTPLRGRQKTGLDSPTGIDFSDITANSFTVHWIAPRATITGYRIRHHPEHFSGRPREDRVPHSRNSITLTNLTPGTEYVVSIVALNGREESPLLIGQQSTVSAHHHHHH
# BSA = molecular target: T4, BSA (bovine, UniProt P02769 25-607); test: ELISA on coated protein
# T4 construct: also called bovine serum albumin
# T4 sequence (P02769 25-607 limits assumed): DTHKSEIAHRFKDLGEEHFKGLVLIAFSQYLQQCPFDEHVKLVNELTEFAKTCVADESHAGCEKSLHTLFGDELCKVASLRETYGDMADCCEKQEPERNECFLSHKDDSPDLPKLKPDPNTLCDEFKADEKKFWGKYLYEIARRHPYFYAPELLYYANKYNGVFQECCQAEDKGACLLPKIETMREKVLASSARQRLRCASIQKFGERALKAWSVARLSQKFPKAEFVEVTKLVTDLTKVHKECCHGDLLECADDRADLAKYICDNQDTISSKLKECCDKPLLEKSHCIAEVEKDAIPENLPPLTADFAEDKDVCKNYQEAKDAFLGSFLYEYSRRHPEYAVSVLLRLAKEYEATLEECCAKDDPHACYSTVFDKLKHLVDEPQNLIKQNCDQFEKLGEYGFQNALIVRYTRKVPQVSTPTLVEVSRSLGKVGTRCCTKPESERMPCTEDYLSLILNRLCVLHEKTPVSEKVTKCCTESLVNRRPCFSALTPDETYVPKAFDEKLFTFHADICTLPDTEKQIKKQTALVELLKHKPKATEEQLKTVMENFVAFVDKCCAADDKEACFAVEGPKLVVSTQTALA
# MBP-Aβ40 fusion protein [6] = molecular target: T5, MBP-Aβ40 fusion protein; test: SPR (Biacore X), MBP-Aβ40 amine-coupled (1316 RU), mutein as analyte
# T5 construct: the entry may be a nucleic acid; Biotin-labelled in the capture ELISA, unlabeled in the direct ELISA and SPR; also called MBP-Abeta40
# Description: (§4) FIG. 20 depicts the kinetic real time analysis of Lcn2 muteins H1GA (A) and H1GV (B) measured on a Biacore X instrument at a flow rate of 20 μl/min. The MBP-Aβ40 fusion protein was coupled via amine chemistry to a CMD 2001 chip (ΔRU=1316) and each of the purified Lcn2 muteins was applied in a series at varying concentrations. The measured signal is shown as a grey line while the curve fit is depicted as a black line in each case.
# (§5) Real time analysis of the interaction between Lcn2 muteins H1GA or H1GV and MBP-Aβ40 (SEQ ID NO: 33) was performed on a Biacore X system using PBS/T (4 mM KH₂PO₄, 16 mM Na₂HPO₄, 115 mM NaCl, pH 7.4 containing 0.005% (v/v) Tween 20) as running buffer. A 15 μg/mL solution of MBP-Aβ40 from Example 2 in 10 mM Na-acetate, pH 4.5 was immobilized onto a CMD 200I chip (Xantec, Düsseldorf, Germany) using standard amine coupling chemistry, resulting in a ligand density of 1316 resonance units (RU). The purified Lcn2 muteins H1GA and H1GV from Example 20 were applied in concentrations ranging from 4 nM to 128 nM at a flow rate of 20 μL/min. The data were double-referenced by subtraction of the corresponding signals measured for the control channel, which had been activated and blocked with ethanolamine, as well as subtraction of the measured signals for an average of buffer injections.
# ovalbumin = molecular target: T6, ovalbumin (UniProt P01012 2-386); test: capture ELISA
# T6 sequence (looked up): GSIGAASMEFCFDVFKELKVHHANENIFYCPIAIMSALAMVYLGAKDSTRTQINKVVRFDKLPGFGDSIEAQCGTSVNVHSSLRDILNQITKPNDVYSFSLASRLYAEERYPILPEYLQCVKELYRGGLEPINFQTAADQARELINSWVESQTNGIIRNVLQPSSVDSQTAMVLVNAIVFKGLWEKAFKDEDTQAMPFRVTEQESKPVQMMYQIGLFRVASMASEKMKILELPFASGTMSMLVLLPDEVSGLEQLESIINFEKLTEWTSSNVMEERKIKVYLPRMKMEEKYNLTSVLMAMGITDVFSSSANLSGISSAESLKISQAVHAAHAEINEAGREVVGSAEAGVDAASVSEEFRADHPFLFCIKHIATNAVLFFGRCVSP
# [7] = molecular target: T7, biotinylated Aβ40 peptide (human, C-terminal biotin group attached via a lysine spacer); test: capture ELISA: mutein captured via Strep-tag II, biotinylated Aβ40 titrated
# T7 construct: Synthetic peptide (Peptide Speciality Laboratory) with a C-terminal biotin on a lysine spacer; used in the capture ELISAs
# T7 sequence (peptide, as listed by the source): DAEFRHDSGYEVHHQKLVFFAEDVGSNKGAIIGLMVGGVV
# Description: (§6) FIG. 19 depicts the binding activity of the Lcn2 muteins H1GA, H1GV, and H1-G1 in capture ELISAs with the biotinylated Aβ targets Aβ40 (A) and Trx-Aβ28 (B). StrepMAB-Immo was immobilized at 10 μg/ml on microtitre plates and employed for capturing of 1 μM Lcn2 muteins via the Strep-tag H. Binding of the biotinylated targets, applied in a dilution series, was then detected by incubation with ExtrAvidin/AP and a subsequent chromogenic reaction with pNPP. […] The data were fitted to a monovalent binding model.
# MBP-Aβ40 fusion protein [8] = molecular target: T5, MBP-Aβ40 fusion protein; test: SPR (Biacore X, FIG. 20), MBP-Aβ40 immobilised, H1GV injected; the table marks the row '* dissociation time not sufficiently long'
# Description: as §4, §5
# Trx-Aβ28 fusion protein = molecular target: T8, Trx-Aβ28 fusion protein (Escherichia coli (strain K12), UniProt P0AA25 1-76 = thioredoxin, Biotin-labelled through an NHS ester (2:1) in the capture and competitive ELISAs; unlabeled in the direct ELISA and as competitor.); test: capture ELISA: mutein captured via Strep-tag II, biotinylated Trx-Aβ28 titrated
# T8 construct: the entry may be a nucleic acid; also called TrxAbeta28H6
# Description: as §6
# [9] = molecular target: T9, Aβ40 peptide, non-labeled (human); test: SPR (Biacore T100), Aβ40 amine-coupled on CM5 (325 RU), dissociation 7200 s
# T9 construct: Non-labeled synthetic peptide (W. M. Keck Laboratory); also called Abeta40; amyloid beta peptide
# T9 sequence (peptide, as listed by the source): as above
# Description: (§7) FIG. 21 depicts the kinetic real time analysis of the Lcn2 mutein H1GA measured on a Biacore T100 instrument with immobilized Aβ40 using an extended dissociation time for a trace measured at high concentration. The target peptide Aβ40 was coupled via amine chemistry onto the Biacore CM5 chip (ΔRU=325), and the purified Lcn2 mutein H1GA was applied at a flow rate of 30 μl/min. For exact determination of the low koff rate, dissociation was performed for 7200 s at the highest concentration tested. kon rates were determined using the dilution series of the Lcn2 mutein H1GA with both association and dissociation times of 300 s.
# (§8) Real time analysis of the interaction between the Lcn2 mutein H1GA and Aβ40 (SEQ ID NO: 29) was performed on a Biacore T100 system (Biacore, Uppsala, Sweden) using PBS/P (4 mM KH₂PO₄, 16 mM Na₂HPO₄, 115 mM NaCl, pH 7.4 containing 0.005% (v/v) Surfactant P20) as running buffer. […] For exact determination of the low koff rate the highest concentration was analysed using a dissociation time of 7200 s. The data were double-referenced as in Example 21. kₒₙ and koff for the binding reaction were determined from the entire data set using Biacore T100 Evaluation Software V2.0.3 for data processing and kinetic fitting. […]
# MBP-Aβ40 fusion protein [10] = molecular target: T5, MBP-Aβ40 fusion protein; test: SPR (Biacore X, FIG. 20), MBP-Aβ40 immobilised, H1GA injected; the table marks the row '* dissociation time not sufficiently long'
# Description: as §4, §5
# [11] = molecular target: T9, Aβ40 peptide, non-labeled; test: SPR (Biacore T100), Aβ40 amine-coupled on CM5 (325 RU), mutein as analyte
# Description: as §7, §8
binder,measurement,setting,value
B1,Kd,[1],40.1 nM
same,Kd,[2],5.26 nM
same,koff,[2],0.00762 s⁻¹
same,kon,[2],1.45e+06 M⁻¹ s⁻¹
same,Kd,[3],36 nM
same,koff,[3],0.075 s⁻¹
same,kon,[3],2.1e+06 M⁻¹ s⁻¹
same,Kd,[4],5.3 nM
same,binding result,[5],no binding
same,binding result,BSA,no binding
B2,Kd,MBP-Aβ40 fusion protein [6],1.06 nM
same,koff,MBP-Aβ40 fusion protein [6],7.26e-05 s⁻¹
same,kon,MBP-Aβ40 fusion protein [6],68400 M⁻¹ s⁻¹
same,binding result,ovalbumin,no binding
same,Kd,[7],4.9 nM
same,Kd,MBP-Aβ40 fusion protein [8],1.1 nM
same,Kd,Trx-Aβ28 fusion protein,4.2 nM
B3,koff,[9],1.18e-05 s⁻¹
same,Kd,MBP-Aβ40 fusion protein [10],0.48 nM
same,Kd,MBP-Aβ40 fusion protein [6],0.476 nM
same,koff,MBP-Aβ40 fusion protein [6],2.75e-05 s⁻¹
same,kon,MBP-Aβ40 fusion protein [6],57700 M⁻¹ s⁻¹
same,binding result,ovalbumin,no binding
same,Kd,[7],4.2 nM
same,Kd,[11],0.095 nM
same,kon,[11],125000 M⁻¹ s⁻¹
same,Kd,Trx-Aβ28 fusion protein,3.8 nM
